Results from patent US11739161B2, “Methods for treating and diagnosing prostate cancer” (Tufts Medical Center, Inc., priority 2017, dated 2023).

Columns and labels:
Format in all cases: cell-based, human
[1] = test system: AXL phosphorylation in DU145 cells; test: AXL phosphorylation (phospho-RTK array, immunoblot); conditions: serum-starved DU145, 1 μg/ml protein
Procedure: FIGS. 12A-F. RNASE4 induces AXL phosphorylation. (A) Human phospho-receptor tyrosine kinase (RTK) antibody array analysis. Serum-starved DU145 cells were treated with or without 1 μg/ml of RNASE4 for 5 minutes. A total of 1.5 mg cell lysate protein was blotted on each array membrane. […] (B) Immunoblot analysis of RNASE4-stimulated AXL phosphorylation. DU145 cells were serum-starved overnight and treated with 1 μg/ml of RNASE4 for the indicated time. Cell lysates were analyzed by antibodies against total AXL and phospho-AXL, with β-actin as the loading control. Left panels, immunoblots; right panel, Image J quantification of p-AXL normalized to total AXL. (C) Immunoblot analysis of phospho-AXL in response to stimulation by ANG, RNase A, and RNASE4. DU145 cells were serum-starved overnight and treated with 1 μg/ml of ANG, RNase A, or RNASE4 for 15 minutes. Left panels, immunoblots; right panel, quantification. (D) Effect of AXL inhibitor R428 on RNASE4-induced cell proliferation. Serum-starved DU145 cells were incubated with 1 or 3 μM R428 for 3 hours and then stimulated by 1 μg/ml of RNASE4 for 3 days. Cell numbers were determined by MTT assay. Data shown are means±SEM of a representative experiment (in triplicates) of 3 independent repeats. **P≤0.01 and ***P≤0.001, by unpaired two-tailed Student's t test. (E) Effect of AXL inhibitor R428 on RNASE4-induced AKT and P6 phosphorylation. Serum-starved DU145 cells were incubated with 1 or 3 μM R428 for 3 hours and then stimulated by 1 μg/ml of RNASE4 for 5 minutes. Cell lysates were analyzed for AKT and P6 phosphorylation by immunoblotting. Top panels, immunoblots; bottom panels, quantification of phospho-AKT and phospho-S6 by Image J analyses normalized to total AKT and P6, respectively. (F) Schematic presentation of proposed involvement of AXL in RNASE4-stimulated cellular events.
(§1) Human Phospho-RTK Arrays were purchased from R&D Systems. […] Protein concentrations were quantified by Bradford Assay and 1.5 mg cell lysate was used per array. Pixel densities on were analyzed by ImageJ. […]

[2] = test system: AXL phosphorylation in PC-3 cells; test: as above; conditions: serum-starved PC-3, 1 μg/ml RNASE4
Procedure: FIGS. 11A-F. RNASE4 induces PC-3 cell proliferation and phosphorylation of AKT and S6. (A) Exogenous RNASE4 (1 μg/ml) stimulates PC-3 cells proliferation in the presence of 2% FBS. Cell numbers were determined by MTT assay. (B) Time course of AKT and S6 phosphorylation of serum-starved PC-3 cells by RNASE4 (1 μg/ml). Left panels, immunoblots; right panels, quantification of p-AKT and p-S6 normalized to total AKT and S6 by Image J. (C) Effect of AKT inhibitor MK-2206, PI3K inhibitors LY294002 and Wortmannin, and mTOR inhibitor Rapamycin on RNASE4-induced PC-3 cell proliferation. Cells were pre-incubated with the inhibitors at the indicated concentrations for 1 hour prior to be stimulated by RNASE4 (1 μg/ml) for 3 days. Cell numbers were determined by MTT assay. (D) Human phospho-RTK antibody array analysis of starved PC-3 cells treated with or without 1 μg/ml RNASE4 for 5 minutes. (E) Time course of AXL phosphorylation stimulated by RNASE4 in PC-3 cells. […] Cell lysates were analyzed for total AXL and phopho-AXL by immunoblotting. Left panels, immunoblots; right panel, quantification phospho-AXL normalized to total AXL by Image J analysis. […] Cell numbers were determined by MTT assay. […]
as §1

LNCaP cells = test: RNASE4 knockdown, cell proliferation (Coulter counter); conditions: exogenous RNASE4 1 μg/ml
Excerpt: FIGS. 15A-D. RNASE4 knockdown inhibits LNCaP cell proliferation in vitro and colony formation in soft agar. (A) Immunoblot analysis of RNASE4 in LNCaP cells stably transfected with shControl, shRNASE4-1, and shRNASE4-2. (B) qRT-PCR analysis of RNASE4 mRNA normalized to GAPDH in LNCaP cells stably transfected with shControl, shRNASE4-1, and shRNASE4-2. (C) Effect of RNASE4 knockdown on LNCaP cell proliferation. Cell numbers were counted by Coulter counter. Exogenous RNASE4, when presented, was at the concentration of 1 μg/ml. Data shown are from a representative experiment in triplicates of 3 independent experiments. (D) Effects of RNASE4 knockdown on colonies formation and growth of LNCaP cells in soft agar. The same numbers of control and RNASE4 knockdown cells were seeded in soft agar, and grown in the absence or presence of 1 μg/ml of RNASE4 for 14 days. Colonies were counted and size measured on a Nikon Eclipse ti microscope. Top panels, representative images of colonies; scale bars=100 μm. Bottom panels, quantification of LMCaP cell colonies and sizes in soft agar. Data shown are means±SEM of five randomly selected fields per dish from a representative experiment. **P≤0.01 and ***P≤0.001, by two-tailed Student's t test.
Lentiviral mediated shRNA system (pGIPZ, Open Biosystems) was used to generate control and RNASE4 knockdown cell lines. […]

B1: RNASE4: recombinant human RNASE4 protein from pET11 expression in E. coli, purified by reversed-phase HPLC; added exogenously (protein, UniProt P34096 29-147, looked up)
Ribonuclease 4: QDGMYQRFLRQHVHPEETGGSDRYCNLMMQRRKMTLYHCKRFNTFIHEDIWNIRSICSTTNIQCKNGKMNCHEGVVKVTDCRDTGSSRAPNCRYRAIASTRRVVIACEGNPQVPVHFDG
[1]
  phosphorylation of AXL: induced phosphorylation
[2]
  phosphorylation of AXL: induced phosphorylation
LNCaP cells
  rescue of the effect of RNASE4 knockdown on cell proliferation: able to rescue
